Experiments:
[1] = target: fusion protein consisting of the extracellular region of the human Fas antigen and the extracellular region of the mouse interleukin 3 receptor (encoded by phFas-AIC2) (human; mouse) (UniProt P25445); assay: ELISA; plate coated with COS-1 supernatant holding the human Fas ECD-mouse IL-3 receptor ECD fusion; detection with peroxidase-labelled rat anti-mouse IgM; PBS blank 0.104
[2] = target: human Fas antigen on human lymphocyte cell line HPB-ALL (human) (UniProt P25445); assay: cell-based or functional assay

Substance	OD405 - OD492 (OD405 - OD492) [1]	ED50 [2] [µg/mL]	OD590 - OD620 (MTT assay, viable HPB-ALL cells) (OD590 - OD620) [2]	activity (cytotoxicity, ED50 test) relative to CH11 and supernatant [F] [2] [fold]
recombinant CH11 H chain + L chain + J chain product in COS-1 culture supernatant [F] (pHEX126, pLEX004 and pJEX004) (antibody)	0.202	0.0229	0.242	
CH11 H chain alone, COS-1 culture supernatant of cells transfected with pHEX126	0.109		0.876	
recombinant CH11 H chain + L chain product in COS-1 culture supernatant [E] (pHEX126 and pLEX004), without J chain (antibody)	0.33	0.0045	0.176	5
CH11 L chain alone, COS-1 culture supernatant of cells transfected with pLEX004	0.135		0.887	
mouse anti-human Fas monoclonal antibody CH11 (IgM), purified from hybridoma culture supernatant	0.445	0.0212		
CH11 J chain alone, COS-1 culture supernatant of cells transfected with pJEX004	0.107		0.883	
